The values that follow come from the supplement of paper PMC7877785.

A short description of the data set: self-splicing fitness, log relative to wild type (ln ratio); higher = more splicing; Tetrahymena group I intron in knt gene, E. coli kanamycin selection, DiMSum; sequences stand for … in CUCUCU…GGAGGGAAAAGUUAUCAGGCAUGCACCUGGUAGCUAGUCUUUAAACCAAUAGAUUGCAUCGGUUUAAAAGGCAAGACCGUCAAAUUGCGGGAAAGGGGUCAACAGCCGUUCAGUACCAAGUCUCAGGGGAAACUUUGAGAUGGCCUUGCAAAGGGUAUGGUAAUAAGCUGACGGACAUGGUCCUAACCACGCAGCCAAGUCCUAAGUCAACAGAUCUUCUGUUGAUAUGGAUGCAGUUCACAGACUAAAUGUCGGUCGGGGAAGAUGUAUUCUUCUCAUAAGAUAUAGUCGGACCUCUCCUUAAUGGGAGCUAGCGGAUGAAGUGAUGCAACACUGGAGCCGCUGGGAACUAAUUUGUAUGCGAAAGUAUAUUGAUUAGUUUUGGAGUACUCGUGGUCG
The method, boiled down: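 The eight P1ex-region nucleotides of an intron in the knt kanamycin-resistance gene on pET-22b(+) were all randomised and the library put into E. coli BL21(DE3). Six replicate transformations were grown overnight at 37°C or 30°C on LB agar with or without 25 μg/mL kanamycin, together with 100 μg/mL carbenicillin, 50 μM IPTG and 0.2% rhamnose. Colonies were pooled and amplicon-sequenced on an Illumina HiSeq 2500. Fitness from DiMSum is the error-weighted combination of wild-type-normalised replicate fold changes, kanamycin over none.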

± gives the uncertainty stated by the source.

As to UAUCAGCAAUAUUACGCGAU, the “self-splicing fitness (ln)” value (37 °C) was -2.49 ± 0.23.
Turning to GUAAAGCAAUAUUACGGAGC, the “self-splicing fitness (ln)” value is -2.47 ± 0.2 (30 °C) and -1.71 ± 0.21 (37 °C).
For ACAUAGCAAUAUUACGAGCU, in that order: -1.32 ± 0.12 and -0.388 ± 0.13.
As to AGGCAGCAAUAUUACGUUUG, the “self-splicing fitness (ln)” value runs as follows: (30 °C) -3.43 ± 0.18; (37 °C) -1.66 ± 0.14.
In the case of AAUAAGCAAUAUUACGUGGC, the “self-splicing fitness (ln)” value is -2.72 ± 0.22 (30 °C) and -2.82 ± 0.36 (37 °C).
Turning to CCCUAGCAAUAUUACGAGGC, the “self-splicing fitness (ln)” value is -4.41 ± 0.42 (30 °C) and -4.06 ± 0.18 (37 °C).
Regarding UCGUAGCAAUAUUACGCUUC, the “self-splicing fitness (ln)” value (30 °C) was -3.12 ± 0.48.
For UUCGAGCAAUAUUACGGUAA, the “self-splicing fitness (ln)” value is -1.85 ± 0.25 (30 °C) and -1.55 ± 0.19 (37 °C).
For ACAUAGCAAUAUUACGACAA, in that order: -0.573 ± 0.12 and -0.73 ± 0.12.
The matching figures for AAGAAGCAAUAUUACGAACG: -0.96 ± 0.11 and -0.286 ± 0.14.
For GCUCAGCAAUAUUACGAACU, in that order: -0.913 ± 0.068 and -0.48 ± 0.079.
For GACCAGCAAUAUUACGAAAG, the “self-splicing fitness (ln)” value was -2.49 ± 0.1 (30 °C) and -2.58 ± 0.18 (37 °C).
For GCGAAGCAAUAUUACGCAAA, in that order: -3.14 ± 0.22 and -2.07 ± 0.17.
For CGUCAGCAAUAUUACGAUCC, in that order: -1.62 ± 0.086 and -0.418 ± 0.13.
UUUUAGCAAUAUUACGUCAC: where the note is “30 °C”, the “self-splicing fitness (ln)” value was -2.38 ± 0.37.
Take AAGUAGCAAUAUUACGUUGU: the “self-splicing fitness (ln)” value by setting is: (30 °C) -2.95 ± 0.1; (37 °C) -2.43 ± 0.13.
For CCAGAGCAAUAUUACGUUGC, in that order: -4.54 ± 0.37 and -2.11 ± 0.18.
For UGAGAGCAAUAUUACGGUUA, in that order: -1.14 ± 0.23 and -1.11 ± 0.21.
For UUACAGCAAUAUUACGCCCA, in that order: -1.62 ± 0.32 and -0.254 ± 0.3.
For the sequence CGACAGCAAUAUUACGCCUA, the “self-splicing fitness (ln)” value reads like this: (30 °C) -2.48 ± 0.19; (37 °C) -1.01 ± 0.17.
Take GGGGAGCAAUAUUACGCGAU: the “self-splicing fitness (ln)” value (37 °C) is -0.791 ± 0.24.
As to CAGUAGCAAUAUUACGGGGC, the “self-splicing fitness (ln)” value is -2.54 ± 0.15 (30 °C) and -2.55 ± 0.23 (37 °C).
With UCUGAGCAAUAUUACGGAAA, the “self-splicing fitness (ln)” value (30 °C) is -3.08 ± 0.18 and the “self-splicing fitness (ln)” value (37 °C) is -1.64 ± 0.15.
For UCCUAGCAAUAUUACGGGGA, in that order: -2.59 ± 0.24 and -1.59 ± 0.21.
For GACUAGCAAUAUUACGCACA, in that order: -0.58 ± 0.13 and 0.00566 ± 0.14.
Regarding AUAUAGCAAUAUUACGGUCC, the “self-splicing fitness (ln)” value is -2.8 ± 0.25 (30 °C) and -1.44 ± 0.33 (37 °C).
For AUGAAGCAAUAUUACGUUCG, in that order: 0.356 ± 0.086 and 0.464 ± 0.12.
The matching figures for AAGAAGCAAUAUUACGUCCU: -0.0351 ± 0.12 and 0.363 ± 0.16.
For GCCAAGCAAUAUUACGGUGG, in that order: -3.54 ± 0.15 and -1.26 ± 0.14.
UGGAAGCAAUAUUACGGCUG: the “self-splicing fitness (ln)” value (30 °C) is -0.475 ± 0.099 and the “self-splicing fitness (ln)” value (37 °C) was 1.02 ± 0.12.
Turning to UUUUAGCAAUAUUACGCCGU, the “self-splicing fitness (ln)” value runs as follows: (30 °C) -2.64 ± 0.32; (37 °C) -2.8 ± 0.44.
For AGAAAGCAAUAUUACGAGGA, in that order: -3.15 ± 0.15 and -2.71 ± 0.16.
The matching figures for GAAGAGCAAUAUUACGACAU: -2.22 ± 0.017 and -1.35 ± 0.035.
The matching figures for AUAGAGCAAUAUUACGUGGG: -3.77 ± 0.31 and -1.79 ± 0.32.
Turning to UAUUAGCAAUAUUACGCCUG, the “self-splicing fitness (ln)” value (30 °C) was -0.0456 ± 0.13 and the “self-splicing fitness (ln)” value (37 °C) was 0.00497 ± 0.16.
For UUGCAGCAAUAUUACGAUAG, the “self-splicing fitness (ln)” value is -0.692 ± 0.079 (30 °C) and 0.225 ± 0.11 (37 °C).
The matching figures for UUCAAGCAAUAUUACGAAUC: -4.05 ± 0.3 and -2.75 ± 0.32.
As for UUUCAGCAAUAUUACGGAAU, the “self-splicing fitness (ln)” value reads like this: (30 °C) -3.77 ± 0.23; (37 °C) -2 ± 0.2.
For GAGGAGCAAUAUUACGCUUG, in that order: -1.28 ± 0.15 and -1.27 ± 0.2.
